{"source": "the nanobody polyreactivity screen of Harvey et al. (2022)", "data": [{"experiment": "yeast display, Sf9 membrane polyspecificity reagent, FACS + sequencing; frameworks hold sequencing errors", "summary_of_the_method": "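Sorting gates, low and high (top ~1%), were placed on anti-HA fluorescence to track expression and on streptavidin fluorescence to track reagent binding. A clone's polyreactivity label is taken from the gate it came out of. The reagent was 10% biotinylated, detergent-solubilized Sf9 membrane, applied for 1 hour at 4 °C to galactose-induced yeast display cells.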", "values": [{"sequence": "LLQLVESVGGLVQAGGTLRLSCAASRSTFHANTLGGYRKAPGKERELVAAISIRGANTYYADSVKGRLTISSDNAKNTVYLQMNSLKREDTAVYYCATRVRKYSLRLDYWGQGTQVTVSS", "polyreactivity (PSR sort gate)": "high polyreactivity"}, {"sequence": "LVQLQESGGGLVQACGSLRLSCAASGDIFDADIMGWYRQAPGKERELVASITDGGSTNYADSVKGRFTISRDNAKNTVYLPMNSLKPEDTAVYYCAKPATYYELDYWGQGTQVTVSS", "polyreactivity (PSR sort gate)": "low polyreactivity"}, {"sequence": "LVQLQESGGGLVQAGGSLRLSCAASGSIYKVVDMGLYRQAPAKEREFVATIGEGGNTYYADSVKGRFTISRDNAKNTVYLQMNSLKPEDTAVYYCNDDIGVYAYESDYWGQGTQVTVSS", "polyreactivity (PSR sort gate)": "low polyreactivity"}, {"sequence": "LVQLQESGGGLVQAGGSLRLSCAASGTISPGGYMGWYRQAPGKERELVASMNVGGSTNYADSVKGRFTISRDNAIITVYLQMNSLKPEDNAVYYCAVWGRNRLQLSYWGQGTQVTVSS", "polyreactivity (PSR sort gate)": "low polyreactivity"}, {"sequence": "LVQLVESGGGLVQAGGSLRLICAASGITISYNAMGWYRQAPGKERELVAAITGSDGITYYADSVKGRFTISRDNAKNTVYLEMNSLKPEDTAVYYCAAEWWDYWYEYDYWGQGTQVTVSS", "polyreactivity (PSR sort gate)": "high polyreactivity"}, {"sequence": "LVQLVESGGGLVQAGGSLRLSCAASGFTFGRNAMGWYRQSPGKEREFVADISGSVGSTYYADSVKGRFTISRDNAKNSVYLQMNRLIPEDTAVYYCAADTLYPRWEFDYWGQGTQVTVSS", "polyreactivity (PSR sort gate)": "high polyreactivity"}, {"sequence": "LVQLVESGGGLVQAVGSLRLSCAASGFTIYGNAMGWYRRAPGKERELVAAITWRGGSTYYADSEKGRFTISRDNAKNTVYLQMNSLKPEDTAVYYCNALKGRPVRSYLASPSYRYDYWGQGTQVTVSS", "polyreactivity (PSR sort gate)": "high polyreactivity"}, {"sequence": "PVQIVESGGGLVQAGGSLRLSCAASGFTFYSNAMGWYRQAPGKEWEMVAAISFSGTRTYYADSVKGRFTISRDNEKNTVYLQMNSLKPEDTAVYYCNAVAYNYPRTYDYWGQGTQVTVSS", "polyreactivity (PSR sort gate)": "high polyreactivity"}, {"sequence": "PVQLVDSGGGLVQAGGSLRLSCAASGRIFYGYALGWYRQAPGKERDLDAAIDWSGGSTYADSVTGRFTISRDNAKNTVYLPMHSLKPEDTAVYYCATDWVTSQQPYYWIYEYWGQGTQVTVSS", "polyreactivity (PSR sort gate)": "low polyreactivity"}, {"sequence": "PVQLVDSGGGLVQAGGSLRLSCAASGSTFQRNVMGWYRQAPGKERELVAAITWRGTSTYYADSVKGRFTISRDNAKNTVYLQMNSLKPEDTAVYYCAAERTRSGYYYDYWGQGTQVTVSS", "polyreactivity (PSR sort gate)": "high polyreactivity"}, {"sequence": "PVQLVESGGGFVQAGGSLRLSCAASGFTFYVNAMGWYRQAPGKERELVAAISGSGGSTYYADSVKGRFTISRDNAKNTVYLQMNSLKPEDTAGYYCAADAYNPPYWDDPYDYWGQGTQVTVSS", "polyreactivity (PSR sort gate)": "high polyreactivity"}, {"sequence": "PVQLVESGGGLVQAGGSLRLICAASGRIFEINAMGWYRQAPGKERELFAAITRGGRTYYADSVKGRFTSSRDNAMNTVYLQMTSLKPEDTAVYYCAAYGHIRSGFDCVDYWGQGTQVTVSS", "polyreactivity (PSR sort gate)": "high polyreactivity"}, {"sequence": "PVQLVESGGGLVQAGGSLRLSCAASGFIFSWYAMGWYRPAPGKDRELVAAISRSGGSTYADSVKGRFTIARDNAKNTVYLQMNSLKPEDTAVYYCAAGSYWSYWDSRYDYWGQGTQVTVSS", "polyreactivity (PSR sort gate)": "low polyreactivity"}, {"sequence": "PVQLVESGGGLVQAGGSLRLSCAASGSIFASYAMGWYREAPGKERELVAAISSSSGSTYYADSVKGRFTISRDNAKNTVYLQMTSLKPEDTAVYYCAAESGRRIKYWRGYYYWGQGTQVTVSS", "polyreactivity (PSR sort gate)": "low polyreactivity"}, {"sequence": "PVQLVESGGGLVQAGGSLRLSCAASGSNFEYYTMGWYRQAPGKERELVATISRSADRTYYADSVKGRFTISRDYAKNTVYLQMNILKPEDTAVYDCAKLYPRTTQWIYDYWGQGTQVTVSS", "polyreactivity (PSR sort gate)": "high polyreactivity"}, {"sequence": "PVQLVESGGGVVQAGGSLRLSCAASGSIFDENAKGWNRQAPGKERELVAAISSGGSTNYADSVKGRFTITRDNAKNTVYLQMNSLKPEDTAVYYCNNKSRRQYDYWGQGTQVTVSS", "polyreactivity (PSR sort gate)": "low polyreactivity"}, {"sequence": "PVQLVESGGVLVQAGGSLRLSCAASGRTFSYYAMGWYRQAPGKERELVADNNCSGTSTDYADSVKGRFTISRDNAKNTVYLQMHSLKPEDTEVYYCPAYLIVYYGDETPYASLHDYWGQGTQVSVSS", "polyreactivity (PSR sort gate)": "low polyreactivity"}, {"sequence": "PVQLVESGGVLVQAGGSLRVSCAASGSILLIYSMGWSIQAPGKERELVAGINWSGSRAYYADSVKGRFTISRDNAQNTVYLQMNSLKPEDTAVYYCAARGRRPLYSAYDSWGQGTQVTVSS", "polyreactivity (PSR sort gate)": "low polyreactivity"}, {"sequence": "QAELVESGGGLVQAGGSLRLSSAASGIIFDVYAMGWYRQAPGKERELVASIRWRGGSTYYADSVKGRFTISRDNAKNTVFLQMNSLKPEDTAVYYCAADLTRWYGRTYNYWGQGTQVTVSS", "polyreactivity (PSR sort gate)": "high polyreactivity"}, {"sequence": "QAQLVESGGGLVQAGGSLRLSCAASGSIMYYAMGWYRHAPWKERELVATITRGGSTYYADSVKGRFTISRDNAKNTVYLQMNSLKPEDTAVYYCAKQFLPSGVYYEYDSWGQGTQVTVSS", "polyreactivity (PSR sort gate)": "low polyreactivity"}, {"sequence": "QCQREESGGGLVQAGGRLRLSCAASGLILIYYAMGWYRQAPGKERELVAAITSSGGSTYYADSVKGRFTISRDNAKNTVYLQMNSLKREDTAVYYCAAYYSGDGYYWGQGTQVTVSS", "polyreactivity (PSR sort gate)": "high polyreactivity"}, {"sequence": "QDALVESCGGLVQAGGSLRLICAASGSTFDTYALGWYRQAPAKEWELVAGISWSGGSTFFADSVKGRFTISRDNAKNTVSLQMNSLKPEDTAVYDCAKQLWVGVKYDYWGQGPQVTVSS", "polyreactivity (PSR sort gate)": "low polyreactivity"}, {"sequence": "QDDLVESGGGLVQAGGSLRFRGAASGYTFEKYAMGWKRQAPGKERELFASISWSGGRTRYADSVKGRFTISRDNAKNTDSLQMNSLQPEDTAVDYCAARGAYKSGYNRNEYWGQGTQVTVSS", "polyreactivity (PSR sort gate)": "high polyreactivity"}, {"sequence": "QDELVESGGGLVQAGGSLRLSCAASGRIFPFYAMGWNRQAPGKERDFVAAITYSGGNTNYADSVKGRFTISRDNAKNTVYLQMNSLKPEDTAVYYCAAVLGYGDYYQEDYWGQGTQVTVSS", "polyreactivity (PSR sort gate)": "low polyreactivity"}, {"sequence": "QDHLVESGGCLVQAGGTLRLSCAASGFTIGNYAMAWYRQPPGKERELVAAISWSGGSTYYADSVKGRFTISRDNAKNTVYLQMNSLNPEVTAVYYCNPKRGSLWESDYWGQGSQVTVSS", "polyreactivity (PSR sort gate)": "high polyreactivity"}, {"sequence": "QDHLVESGGGLVQAGGSLRLSCAASGRIFSYYVMGWYRQAPGKERELVAAITSGCSTNYADSVKGRFTISRDNAKNNVYLQMNSLKPEDTAVYYFNRAYTYINRLYGYWGQGTQVTVSS", "polyreactivity (PSR sort gate)": "high polyreactivity"}, {"sequence": "QDKLVESGGGLVQEGGRLRLSCAASGRIFGNYAMGWYRQAPGKERELVAAIDLSGDSTYYADSVKGRFTISRDNAKYTVYLQMKSLKPEDTAVYYCAATDWFSEYYWGQGTQETVSS", "polyreactivity (PSR sort gate)": "low polyreactivity"}, {"sequence": "QDLLVESGGGLVQAGGSLRLRCAASGITFAFYTMGWYRQAPGKPSELVTAISYSGGRTYNADSVKGRFTISRDNAKYTVYVQMLSLKPEDTAVYYCNTRYRGSYDYWGQGTQVTVSS", "polyreactivity (PSR sort gate)": "high polyreactivity"}, {"sequence": "QDLLVESGGGLVQAGGSLRLSCAASGRTFWDYTMGWYRQAPGKDRELVASITRTCRTNYADSVKGRFTISRDNAKNTVYLQMNSLKTEDTAVYYCAAEVGYQGWYPSGYKFDYWGQGTQVTVSS", "polyreactivity (PSR sort gate)": "high polyreactivity"}, {"sequence": "QDQHVESGGCLVQAGGSLRLSCAASGRTFVRNTMGWYRQAPGKEREFVAAISRSGGNTHYADSVKGRFTISRDNAKNTVYLQMNSLKPEDTAVYYCATRAGYEVYPNKMNYWGQGTQVTVSS", "polyreactivity (PSR sort gate)": "high polyreactivity"}, {"sequence": "QDQHVESGGGIVQAGGSLRLICAASGRTFANNAMGWYRQAPGKERELVAAISWSGGSTYYADSVKGRFTISRDNAKNTVYLQMNSLKPEDTAVYYCAADSPRYGGYGYWGQGTHVTVSS", "polyreactivity (PSR sort gate)": "low polyreactivity"}, {"sequence": "QDQHVESGGGLVQAGGSLPLSCADSGSIFPRNAMGWYRQAPGKERELVAAISRIGGSTYYADAVKGRFTISRDNAKNTVYLQMNSLKPEDTAVYYCAAPPSEWQHDYWGQGTQVTVSS", "polyreactivity (PSR sort gate)": "low polyreactivity"}, {"sequence": "QDQHVESGGGLVQAGGSLRLICAASGNTFGWYAMGWYRQAPGKEREFVADISWSGGSTYYADSVKGRFTISRDNAKNTVYLQMNSLKQEDTAVYYCNAVWLYYWHADQYFEYDYWGQGTQVTVSS", "polyreactivity (PSR sort gate)": "high polyreactivity"}, {"sequence": "QDQHVESGGGLVQAGGSLRLICAASGSIIQVYAIGWYRQAPGKEREFVASITRTGGSTKYADSVKGRFTISRDNAKNTVYLQMNSLKPEDTAFFYCNAVPRSWSPYRHWFDYWGQGTQVTVSS", "polyreactivity (PSR sort gate)": "low polyreactivity"}, {"sequence": "QDQHVESGGGLVQAGGSLRLSCAASARIFVPYAMGWYRQAPGQERELVAAFSWRGGSTNYADSVKGRFTISRDNAKNTVYLQLNSLIPEDTAVYYCAAVPVRYRYSYGYYYWGQGTQVSVSS", "polyreactivity (PSR sort gate)": "high polyreactivity"}, {"sequence": "QDQHVESGGGLVQAGGSLRLSCAASGITSKNYAMGWSRQAPGKERELVAVISGRGGSTYYADSVKGRFTITRDNAKNTVYLQMNCLKPEDTAVYYCAAYGNQRRGAYPYKYDYWGQGTQVTVSS", "polyreactivity (PSR sort gate)": "high polyreactivity"}, {"sequence": "QDQHVESGGGLVQAGGSLRLSCAASGLTFAVYTMGWYRPAAGKERELVAAITWDGGITYYADSVKGRFTISRDNAKNTVYLQMNSLKPEDTAVYYCAADSREVSTTAYYYWGQGTQVTLSS", "polyreactivity (PSR sort gate)": "low polyreactivity"}, {"sequence": "QDQHVESGGGLVQAGGSLRLSCAASGLTFHRYAMGWSRQAPGKERELVAAINYSGGRTYYADSVKGRFTISRDNAKNTVYLLMNSLKPEDTAVYYCAGYDYWGQGTQVTVSS", "polyreactivity (PSR sort gate)": "high polyreactivity"}, {"sequence": "QDQHVESGGGLVQAGGSLRLSCAASGRTFAGYAMGWYRQAPGKERELVATISGRGGSTSYADSVKGRFTISRDNAKNTVYLQMNSLIPEDTAVYYCAKASWYKYKYDYWGQGTQVTVSS", "polyreactivity (PSR sort gate)": "high polyreactivity"}, {"sequence": "QDQHVESGGGLVQAGGSLRLSCAASGRTFYQYAMGWYRQAPGKERELVAVINGGGSTNYADSVKGRFTISRDNAKNTVYLQMNSLKPEDTAVYYCNAGSVSDRQMDYWGQGTQVTVSS", "polyreactivity (PSR sort gate)": "low polyreactivity"}, {"sequence": "QDQHVESGGGLVQAGGSLRLSCAASGRTFYSYTMGWYRPPPGKERELVAAINRSGGRTYYADSVKGRFTISRDNAKNTVYLQRNSLKPEDTAVYYCNALEYYRFDYWGQCTQVTVSS", "polyreactivity (PSR sort gate)": "high polyreactivity"}, {"sequence": "QDQHVESGGGLVQAGGSLRLSCAASGSIFNYYAMGWYRQAPGKEREFVAAISRSGGSTYYADSEKGRFTISRDNAKNTVYLEMNSLKPEDTAVYYCNAYSYSEAGDDGDYWGQGTQVTVSS", "polyreactivity (PSR sort gate)": "low polyreactivity"}, {"sequence": "QDQHVESGGGLVQAGGSLRLSCAASGSTFRKYAMGRSRQAPGKERELVAAISWSGGRTYYADSVKGRFTISRDNAKKTFYLQLNSLKPEDTAVYYCAASIPGTRSDGYWGQGTQVTVSS", "polyreactivity (PSR sort gate)": "high polyreactivity"}]}]}
